For two substances, increase of binding affinity against C3b alone, enhancement factor of bound C3b against C3b alone and Kd results are on record in patent publication US20230130737A1.

The term Kd denotes the concentration at which binding is half-saturated. Low values mean a tighter complex, high ones a looser complex.

The target in experiment [1] is trifunctional high FHR4-valence heteromultimer multi-FHR4.C4bpα.His/multi-2D3 VHH anti-Her2.C4bpα.FLAG/mono-eGFP.C4bpβ (human) (UniProt Q92496). The experiment can be described thus: SPR (Biacore); affinity with factor B against C3b alone. (In general: Surface plasmon resonance follows binding to a sensor surface in real time, without labels.)
Chain of trifunctional high FHR4-valence heteromultimer multi-FHR4.C4bpα.His/multi-2D3 VHH anti-Her2.C4bpα.FLAG/mono-eGFP.C4bpβ (human) (Q92496 other isoform, or with tags, fused parts or gaps, chain 1 of 3): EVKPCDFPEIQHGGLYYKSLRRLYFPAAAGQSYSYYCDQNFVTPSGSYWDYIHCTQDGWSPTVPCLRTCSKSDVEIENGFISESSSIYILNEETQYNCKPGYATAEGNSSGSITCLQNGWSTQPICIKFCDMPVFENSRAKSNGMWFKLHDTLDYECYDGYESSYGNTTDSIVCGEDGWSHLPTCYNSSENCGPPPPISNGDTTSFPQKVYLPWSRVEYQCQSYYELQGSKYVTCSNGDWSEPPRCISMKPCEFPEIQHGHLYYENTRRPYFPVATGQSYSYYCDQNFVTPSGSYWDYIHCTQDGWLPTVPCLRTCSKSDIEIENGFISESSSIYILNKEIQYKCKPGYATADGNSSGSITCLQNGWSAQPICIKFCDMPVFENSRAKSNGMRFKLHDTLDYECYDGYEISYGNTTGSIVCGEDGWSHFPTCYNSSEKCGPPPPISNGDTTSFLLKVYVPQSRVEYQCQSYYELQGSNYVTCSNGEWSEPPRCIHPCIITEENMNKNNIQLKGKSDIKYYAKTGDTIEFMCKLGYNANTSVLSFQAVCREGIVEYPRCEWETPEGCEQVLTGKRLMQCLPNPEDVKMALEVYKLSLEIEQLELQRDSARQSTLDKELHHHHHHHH
Chain of trifunctional high FHR4-valence heteromultimer multi-FHR4.C4bpα.His/multi-2D3 VHH anti-Her2.C4bpα.FLAG/mono-eGFP.C4bpβ (human) (P04003 540-597, chain 2 of 3, further chain): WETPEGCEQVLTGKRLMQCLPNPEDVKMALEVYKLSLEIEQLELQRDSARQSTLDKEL
Chain of trifunctional high FHR4-valence heteromultimer multi-FHR4.C4bpα.His/multi-2D3 VHH anti-Her2.C4bpα.FLAG/mono-eGFP.C4bpβ (human) (P20851 137-252, chain 3 of 3, further chain): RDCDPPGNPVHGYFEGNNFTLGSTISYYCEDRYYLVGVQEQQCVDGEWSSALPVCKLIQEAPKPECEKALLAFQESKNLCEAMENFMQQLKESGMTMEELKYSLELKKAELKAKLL
For experiment [2] the target is unchanged. Put plainly: SPR (Biacore); bound RU with factor B against C3b alone.
Experiment [3] shares this target. Put plainly: SPR (Biacore); FH multimer immobilised via Ni2+/NTA, C3b dose series with about 20 µg/ml Factor B as analyte.
The target is the same in experiment [4]. The experiment can be described thus: SPR (Biacore); FH multimer immobilised via Ni2+/NTA, C3b dose series as analyte.

For “C3b in the presence of Factor B (about 20 µg/ml) (from UniProt P01024 23-1663; P00751 26-764)”, the increase of binding affinity against C3b alone in experiment [1] worked out at 2 logs. In experiment [2], the enhancement factor of bound C3b against C3b alone was found to be 5 fold. The Kd in experiment [3] came to 8.73 nM.

Regarding C3b (from UniProt P01024 749-1663), in experiment [4], the Kd worked out at 952 nM.
